Patent US20050176101

Tests used:
[1] = biological target: T1, His-tagged human Abl kinase domain G227-V515 coexpressed with PTP1b phosphatase domain (pET-SPEC BI-PTP Abl G227-V515-X), unphosphorylated
T1 chain: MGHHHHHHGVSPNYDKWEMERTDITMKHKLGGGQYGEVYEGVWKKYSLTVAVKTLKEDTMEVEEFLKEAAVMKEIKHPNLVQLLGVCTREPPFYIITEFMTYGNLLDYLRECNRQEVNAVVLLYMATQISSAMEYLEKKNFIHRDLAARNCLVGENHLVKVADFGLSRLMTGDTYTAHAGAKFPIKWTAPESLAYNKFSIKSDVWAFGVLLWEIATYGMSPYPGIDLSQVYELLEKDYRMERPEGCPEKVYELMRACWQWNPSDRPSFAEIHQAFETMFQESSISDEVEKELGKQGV

[2] = biological target: His-tagged human c-MET kinase domain constructs (various lengths) coexpressed with PTP1B from pET-N6 BI-PTP, unphosphorylated

B1: human PTP1b phosphatase domain, residues Met 1 to Gly 283 (protein)
chain: MEMEKEFEQIDKSGSWAAIYQDIRHEASDFPCRVAKLPKNKNRNRYRDVSPFDHSRIKLHQEDNDYINASLIKMEEAQRSYILTQGPLPNTCGHFWEMVWEQKSRGVVMLNRVMEKGSLKCAQYWPQKEEKEMIFEDTNLKLTLISEDIKSYYTVRQLELENLTTQETREILHFHYTTWPDFGVPESPASFLNFLFKVRESGSLSPEHGPVVVHCSAGIGRSGTFCLADTCLLLMDKRKDPSSVDIKKVLLEMRKFRMGLIQTADQLRFSYLAVIEGAKFIMG
For B1, the “state of phosphorylation detectable with PY20 anti-phospho-Tyr antibody (Western blot)” value [1] was “the Abl coexpressed with PTP1B has little or no phosphorylation above background, whereas Abl coexpressed alone is highly phosphorylated” and the “state of phosphorylation (methods as described for the Abl kinase domain)” value [2] was “When expressed alone the MET was phosphorylated and when coexpressed with PTP1B the MET was unphosphorylated”.
